Results published in the nanobody polyreactivity screen of Harvey et al. (2022).

Test: yeast display, Sf9 membrane polyspecificity reagent, FACS + sequencing; frameworks hold sequencing errors
Method in brief: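 Nanobodies came from a synthetic yeast display library in Saccharomyces cerevisiae BJ5465, induced with galactose for 36–48 hours and stained for 1 hour at 4 °C with 10% biotinylated, detergent-solubilized Sf9 membrane reagent. Cells were enriched on streptavidin microbeads and then FACS-sorted, with low and high (top ~1%) gates set on anti-HA fluorescence for expression and streptavidin fluorescence for reagent binding. Each polyreactivity label reflects the gate a clone came from. Genes were amplified by colony PCR, sequenced by MiSeq 2 × 250 and filtered by CDR length.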

Sequence	polyreactivity (PSR sort gate)
QVQLVESGGGLVQAGGSLRLSCAASGSIFPWYAMGWYRQEPGKERELVAAISKSGAGTYYADSVKGRFTISRDTAKNTVYLQMNSLKPEDTAVYYCNARWRSNRAARYDFWGQGTQVTVSS	high polyreactivity
QVQLVESGGGLVQAGGSLRLSCAASGLTFPYYAMGWYRQAPGKERELVAAISGGGRTYYADSVMGRFTISRDNAKNTVYLQMNSLKPEDTAVYYCAPFHVGRYTGTVTDGYDYWGQGTQVTVSS	high polyreactivity
QVQLVESGGGLVQAGGSLRLSCAASGRTFRYYAMGLYRQAPGKERELVAAIRSGGTTYYADSVKGRFTISRDNAKNTVYLQMNSLKPEDTAVYYCAADGGKGGIRFGYWGQGTQVTVSS	high polyreactivity
QVQLVESGGGLVQAGGSLRLSCAASGNIFSVYAMVWYRPAPGKERELVAAISSSGGRTYYADSVKGRFTISRDNAKNTVYLQMNSLKPEDTAVYYCAARSYTGQFGYWGQGTQVTVSS	high polyreactivity
QVQLVESGGGLVQAGGSLRLSCAASGSTFFLYSMGWYRPAPGKERELVAAINYIGGTYYADSVKGRFTISRDNAKNTVYLQMNSLKPEDTAVYYCAASYVGTIAGMDYWGQGTQVTVSS	low polyreactivity
QVQLVESGGGLVQAGGSLRLSCDASGSIISYYTMGWYRQAPWKERELVAAISLTGGSTYYADSVKGRFTISRDNAKNTVYLQMNSLKPEDTAVYYCIAVRYASPYGYWGQGTLVTVSS	high polyreactivity
QVQLVESGGGLVQAGGSLRLSCAASGSTFLHSAMGWYRQAPGKEREFTYYADSVKGRFTISRDNAKNTVYLQMHSLKPEDTAGYYCNAGPYWSPYGDDVGYWGQGTQVTVSS	low polyreactivity
LVQLVESGGGLVQAGGSLRLSCAASGSTFDGYAMGWYRQAPGKERELVAAIAYSGSSTYYADSVTGRFTISRDNSKNTVYIQMNSQKQEDTAVYYCAVDDTHPFGPDGGGDYWGQGTQVTVSS	low polyreactivity
QVQLVESGGGLVQAGGSLRLSCAASGFIFTYNTMGWDRQAPGKERELVAAISLRGGNTYYADSVKGRFTISRDNAKNTVYLQMHSLKPEDTAVYYCAALGKYRSGNYFGQGTQVTVSS	high polyreactivity
QVQLVESGGGLVQAGGSLRLSCAASGRIFTTNAMGWYRQAPGIERELVAAITYSGGTTYYADSVKGRFTISRDNAKNTVYFQMNSLKPEDTAVYYCAADVKFSPPYDYWGQGTQVTVSS	low polyreactivity
QVQLVESGGGLVQAGGSLRLSCAASGIIFDVYAMGWYIQAPGKERELVAAISSGGSTYYADSVKGRFTISRDNAKNTVYLQMNSLKPEDTAVYYCATAQSVIYRYEYWGQGTQVTVSS	low polyreactivity
QVLLVESGGGLVQAGGSLRLSCAATGSIFVGYVMGWYRQAPGKERELVAAISRSGGRTYYADSVKGRFTISRDNAKNTVYLQMNSLKPEDTAVYYCAVRHRFYTAGYDYWGQGTQVTVSS	low polyreactivity
QVQHLESGGGLVQAGGSLRLSCVASGLTQPYAMRWYRQAPGKERQLVAAITGGDGSTTYADSVKGRFTISRVNAKNTVYLQMNSLKPEDTAVYYCNADTARKYAESQFYHWGQGTQVSVSS	low polyreactivity
QVQLVESGGGLVQAGGSLRLSCAATGSTFGAYAMGWYRQAPGKERELVAAITRRSGSTYYADSVKGRFTISRDNAKNTVYLQMNSLKPEDTAVYYCAARASTIMGSWGQGTQVTVSS	high polyreactivity
QVQLVESGGGLVQAGGSLRLSCAASGRIFSYAMGWYRQAPGKEREFVAAIRWSGGRTYYADSVKGRFTISRDNAKNTVYLQMNSLKPEDTAVYYCARQGYTLYRTRYRYDYWGQGTQVTVSS	high polyreactivity
QVQLVESGGGLVQPGGSLRLSWAASGSIFVGYAMGWYRQAPGKERELVAAISTRGGSTYYADSVKGRFTISRDNAKNTVYLQINSLKPEDTAVYYCAADYLDSTYGYVFGWDDYWGQGTLVTVSS	low polyreactivity
QVQLVESGGGLVQAGGSLRLSCAASGFIFTANAMGWYRQAPGKEMELVAAISRSGGRTYYADSVKGRFTISRDNAKNTVYLQMNSLKPEDTAVYYCAAPYRSYDWYDYWGQGTQVTVSS	high polyreactivity
QVQLVESGGGLVQAGGSLRLSCAASGITFFENAMGWYRQAPGKERELVAASSYSGGSTYYADSVKGRFTISRDNAKNTVYLQMYRLKPEDTAVYSCAADWYNFLYIRNRWGYGYWGQGSQVTVSS	high polyreactivity
QVQLVESGGGLVQAGVSLRLSCAASGLIFGQNAMGWYRQAPAKERELVAAISQRGGTYYADSVKGRFTISRDNSKNTVYLQMNSLKPEDTAVYYCAARVGLQPGRYYLRYDYWGQGTQVTVSS	low polyreactivity
QVQLVESGGGLVQAGGSLRLSCAASGNTLSYYTMGWYRQAPGKERELVAAISRGGGSTYYADSVKGRFTISRDNSMNTVYLHMNSLKPEDTAVYYCAAEAYRYAWYDYWGQGTQVTVSS	high polyreactivity
QVQLVESGGGLVQAGGSLRLSCAASGITFTRNVMGWYRQAPGKERELVAAISGSGGSTYYADSVKGRFTISRDNEKNTVYLQMNSLKTEDTAVYYCAARSRGGRRYDYWGQGTQVTVSS	high polyreactivity
HLQLVETVGGLDQAGGSLRLSFAASGITSYGYAKGGYSEAAANESELVASISWTGGNTYADSLKGRFTISRDNAKNSVYLQMNSLKPEDSAVYYSNAGRSWDFLYCYEYWGQGTQVTVSS	low polyreactivity

Sequence	polyreactivity (PSR sort gate)
QVQLVESGGGLVQAGGSLRLSCAASGSIFPAYALGWYRPAPGKERELVAAITSSCGSTYYADSVKGRFTISRDNAKNTVYLQMNSLKPEDTAVYYCATVYPGDSYVYRFDYWGQGTQVTVSS	low polyreactivity
QFHHVESGGGLVQAGGSLRLTCAATGIIILGNAKGWYRQAPGKERELVATITSGGTTNYADSVKGRFTISRDNAKNTVYLQMNSLIPEDTAVYYCNKRSYDQQEYEYDYWGQGTQVTVSS	low polyreactivity
QVQLVESGGGLVQAGGSLRLSCAASGRIFWDYAMGWYRQAPGKERELVAVITFSGDSTYYADSVKGRFTISRDNAKNTVYLQMNSLKPEDTAVYYCAAARAIRQFWYVATFEYWGQGTQVTVSS	low polyreactivity
QVQLVESGGGLVQAGGSLRLSCAASGRTFQYNAMGWYRQAPGKERELVAAISWSGGSTYYADSVKGRFTISRDNAKNTVYLQMNSLKPEDTAVYYCNARTLFKWRHGHYYAYDYWGQGTQVTVSS	high polyreactivity
QVQLVESGGGLVQAGGSLRLSCAASGSTFQRYTMGWYSQAPGKERELVAAISQSGGRTYYADSVKGRFTISREHAKKTVYLEMNSLKPEDTAVYSCNAASRTKFDYWGQGTQVTVSS	high polyreactivity
QVQLVESGGGLVQAGGSLRLSCAASGSIFPSYAMGWYRLAPGKERELVATISSDGGTNYADSVKGRFTISRDNAKNTVYLQMYSLKPEDTAVYYCATRTTYGQSGSAGPRPYNYWGQGTQVTVSS	low polyreactivity
QGQLVESGGGIVQAGGSLRLSCAASGFNFWQYAMGLYRQAPGKERELVAAITSSGTSTYYADSVKGLFTISRDNAKNTVYLQMNSLKPEDTAVYSCAADLGYYDLYYWGQGTQVTVSS	low polyreactivity
QVQLVESGGGLVQAGGSLRLSCAASGYIFLSYAMGWYIQAPGKERELVAAISRGGRTYYADSVKGRFTISRDNAKNTVYLQMNSLKPEDTAVYYCNAVSTPGKYGYWGQGTQVTVSS	high polyreactivity
QVHLVESGGGLVQAGGSLRLSCAASGSIFGYNAMGWYRQAPGKERELVAAITWRGGSTYYADSVKGRFTISRDNAKNTVYLQMNSLKPEDTAVYYCAAYVYQEYDYWGQGTQVTVSS	high polyreactivity
EVQLVESGGGLVQAGGSLRLSCAAYGFTFVVYDMGWYRQAPGKERELVAAISRRGGNTYYADSVKGRFTISRDNAKNTVYLQMNSLKPEDTAVYYCNAVRTRKAYDYWGQGTQVTVSS	low polyreactivity
QVQLVESGGGLVQAGGSLRLSCAASGITFRNYARGWYRQAPGKERELVAAITTSGSRTYYEDSVKGRFTISRDNAKKTVYLQMNSLKPEDTAVYYCAAQQVPWQYYDFEYWGQGTQVTVSS	high polyreactivity
QVQLVESGGGLVQAGGSLRLSCAASGSIFSAYGMGWYRQAPGKERELVAAITRSGGSTYYADSVKGRFTISRDNAKNTVYLQMNSLKPEDTAVYYCAAKSIIRPYAPRRDDMDYWGQGTQVTVSS	low polyreactivity
QVQLVESGGGLVQAGGSLRLSCAASGITFVYNAMGWYRQAPGKERELVASITFGGGSTYYADSVKGRFTISRDNAKITVYLQMHSLKPEDTAVYYCAARLHVAFDYWGQGTQVTVSS	low polyreactivity
QVQLVESGGGLVQAGGSLRLSCAASGSTFGLYAMGWYRQAPGKERELVAAISYSGSSTYYADSVKGRFTISRDNAKNTVYLQMNSLKPEATAVYYCAARRSEHGYNYWGQGTQVSVSS	high polyreactivity
QVQLVESGGGLVQAGGSLRLSCAASGSIFLSNAMGWYRQAPGKERELVASISGSGSTNYADSVKGRFTISRDNAKNTVYLQMNSLKPEDTAVYYCAAYQRYDSVTGARYEYDYWGQGTQVTVSS	low polyreactivity
QVQLVDSGGGLVQAGGSLRLSCAASGITFNLNVMGWYRQAPGKERELVAAISRSGGRTYYADSVKGRFTISRDNAKNTVYLQMNSLKPEDTAVYYCDALSDRSSVPGDYWGQGTQVTVSS	high polyreactivity
QVQLVESGGGLVQAGGSLRLSCAASRSIFAGNAMVWYRQSPGKERELVAGITFGDDSTYYADSVKGRFTISRDNAKNTVYLQMNSLKPEVTAVYYCATDLHPYNYYFYHYWVDAAYDYLGQGTQVTVSS	low polyreactivity
QVQLVESGGGIVQAGGSLRLSCAASGSTFRRYAMGWYRQAPGKERELVASISWSGGSTSYADSVKGRFTISRDNAKNTVYLQMNSLKPEDTAGYYCAAVRYYWGEYYARYAYEYWGQGTQVTVSS	high polyreactivity
QVQLVESGGGLVQAGGSLRLSCAAYGRIFKYYVMGWYRQAPGKERELVATISSGSGTNYADSVKGRFTISRDNAKNTVYLQMNSLKPEDTAVYYCAARWTPRVRGYNYWGQGTLVTVSS	high polyreactivity
QVQLVESGGGLVQAGGSLRLSCAASGRTFRLYAMGWYRQAPGKERELVARISRGGSTYYADSVKGRFTISRDNAKNTVYLQMNSLKPEDTAVYYCAAEGWGLSHRYDYWGQGTQVTVSS	high polyreactivity
QVQLVESGGGLVQAGGSLRLSCAASGSIFLVYSMGWYRQAPGKERELVAAISRSGRTYADSVKGRFTISRDNAKNTVYLQMNSLKPEDTAVYYCNKLAVRPGYGSTYDYWGQGTQVTVSS	high polyreactivity
